Kd data for one molecule are collected here from US9513287.

The assay addresses Shiga toxin 2f (Stx2f) holotoxin (Escherichia coli).

The Kd is the concentration at which binding is half-saturated.

B1: monoclonal antibody Stx2f-1 (antibody, V domains shown)
VH: QVQLQQSGPEVVRPGVSVKISCKGSGYTFTDYAIHWVKQSHAKSLEWIGFISTYNGNPNYNKEFKGKATVTVDKSSSTAYLELARLTSEDSAIYFCARDFYGSSSWFAYWGQGTLVTVSA
VL: DIVLTQTPASLAVSLGQRATISCRASESVDSYGDDFMHWYQQKPGQPPKLLIYRVSNLESGIPVRFSGSGSRTDFTLTINPVEADDDATYYCQQSNENPYTFGGGTKLEIK
For B1, the dissociation constant (Kd) was found to be 516 pM.
